Data as given in US20240141027A1 (BIOARCTIC, published 2024).

How the values were obtained:
recombinant Aβ1-42 = target: T1, recombinant Aβ1-42; test: indirect ELISA, plates coated with recombinant Aβ1-42
T1 construct: Coated at 0.5 µg/ml on ELISA plates; also called Amyloid Beta (Aβ1-42)

[1] = target: T2, recombinant murine transferrin receptor 1 (mTfR1), extracellular domain fused to a His-tag (murine, UniProt Q62351 89-763); test: BLI (Octet), mTfR1 captured on holo-transferrin sensors, analyte 50 nM
T2 construct: Position of the His-tag (N or C) unknown; also called recombinant mTfR1; murine TfR1; not shown: His-tag
T2 sequence (Q62351 89-763): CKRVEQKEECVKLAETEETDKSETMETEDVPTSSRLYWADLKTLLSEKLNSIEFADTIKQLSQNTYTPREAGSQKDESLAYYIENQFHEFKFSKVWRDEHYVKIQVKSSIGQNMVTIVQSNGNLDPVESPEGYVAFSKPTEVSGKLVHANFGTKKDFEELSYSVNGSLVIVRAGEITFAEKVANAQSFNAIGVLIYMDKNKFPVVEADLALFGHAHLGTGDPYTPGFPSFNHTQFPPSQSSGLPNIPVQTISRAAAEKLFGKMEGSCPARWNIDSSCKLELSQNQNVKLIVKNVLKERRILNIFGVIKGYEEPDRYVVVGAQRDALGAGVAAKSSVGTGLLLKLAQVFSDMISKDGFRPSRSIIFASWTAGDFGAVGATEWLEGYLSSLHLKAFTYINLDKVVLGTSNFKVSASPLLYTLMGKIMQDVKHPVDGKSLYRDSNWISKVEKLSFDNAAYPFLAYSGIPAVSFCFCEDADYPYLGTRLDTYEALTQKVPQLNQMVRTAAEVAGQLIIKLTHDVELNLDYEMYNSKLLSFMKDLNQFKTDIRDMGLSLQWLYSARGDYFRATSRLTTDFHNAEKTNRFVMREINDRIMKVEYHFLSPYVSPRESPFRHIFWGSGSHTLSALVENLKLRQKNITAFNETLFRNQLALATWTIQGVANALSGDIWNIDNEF

T1 sequence (peptide, as listed by the source): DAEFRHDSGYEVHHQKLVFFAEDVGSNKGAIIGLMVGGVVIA

| binding result (recombinant Aβ1-42) | binding result [1] | Binder |
| --- | --- | --- |
| binds | binds | mAb158-scLc-8D3-Ig.11 (bispecific antibody, human IgG1, kappa, Format [LC-L1-scBM-L2-LC]) heavy: not shown DIVMTQAPLSLPVSLGDQASISCRSSQSIVHSNGNTYLEWYLQKPGQSPKLLIYKVSNRFSGVPDRFSGSGSGTDFTLKISRVEAEDLGIYYCFQGSHVPPTFGGGTKLEIKRADAAPTVSIFPPSSEQLTSGGASVVCFLNNFYPKDINVKWKIDGSERQNGVLNSWTDQDSKDSTYSMSSTLTLTKDEYERHNSYTCEATHKTSTSPIVKSFNRNECGGGGSGGGGSGGGGSGGGGSGGGGSEVQLVESGGGLVQPGNSLTLSCVASGFTFSNYGMHWIRQAPKKGLEWIAMIYYDSSKMNYADTVKGRFTISRDNSKNTLYLEMNSLRSEDTAMYYCAVPTSHYVVDVWGQGVSVTVSSGGGGSGGGGSGGGGSDIQMTQSPASLSASLEEIVTITCQASQDIGNWLAWYQQKPGKSPQLLIYGATSLADGVPSRFSGSRSGTQFSLKISRVQVEDIGIYYCLQAYNTPWTFGGGTKLELKRGGGGSGGGGSGGGGSDIVMTQAPLSLPVSLGDQASISCRSSQSIVHSNGNTYLEWYLQKPGQSPKLLIYKVSNRFSGVPDRFSGSGSGTDFTLKISRVEAEDLGIYYCFQGSHVPPTFGGGTKLEIKRADAAPTVSIFPPSSEQLTSGGASVVCFLNNFYPKDINVKWKIDGSERQNGVLNSWTDQDSKDSTYSMSSTLTLTKDEYERHNSYTCEATHKTSTSPIVKSFNRNEC |
| binds | binds | mAb158-scLc-8D3-Ig.8 (bispecific antibody, human IgG1, kappa, Format [LC-L1-scBM-L2-LC]) heavy: not shown DIVMTQAPLSLPVSLGDQASISCRSSQSIVHSNGNTYLEWYLQKPGQSPKLLIYKVSNRFSGVPDRFSGSGSGTDFTLKISRVEAEDLGIYYCFQGSHVPPTFGGGTKLEIKRADAAPTVSIFPPSSEQLTSGGASVVCFLNNFYPKDINVKWKIDGSERQNGVLNSWTDQDSKDSTYSMSSTLTLTKDEYERHNSYTCEATHKTSTSPIVKSFNRNECGGGGSGGGGSGGGGSEVQLVESGGGLVQPGNSLTLSCVASGFTFSNYGMHWIRQAPKKGLEWIAMIYYDSSKMNYADTVKGRFTISRDNSKNTLYLEMNSLRSEDTAMYYCAVPTSHYVVDVWGQGVSVTVSSGGGGSGGGGSGGGGSDIQMTQSPASLSASLEEIVTITCQASQDIGNWLAWYQQKPGKSPQLLIYGATSLADGVPSRFSGSRSGTQFSLKISRVQVEDIGIYYCLQAYNTPWTFGGGTKLELKRGGGGSGGGGSGGGGSDIVMTQAPLSLPVSLGDQASISCRSSQSIVHSNGNTYLEWYLQKPGQSPKLLIYKVSNRFSGVPDRFSGSGSGTDFTLKISRVEAEDLGIYYCFQGSHVPPTFGGGTKLEIKRADAAPTVSIFPPSSEQLTSGGASVVCFLNNFYPKDINVKWKIDGSERQNGVLNSWTDQDSKDSTYSMSSTLTLTKDEYERHNSYTCEATHKTSTSPIVKSFNRNEC |
| binds | binds | mAb158-scLc-8D3-Ig.7 (bispecific antibody, human IgG1, kappa, Format [LC-L1-scBM-L2-LC]) heavy: not shown DIVMTQAPLSLPVSLGDQASISCRSSQSIVHSNGNTYLEWYLQKPGQSPKLLIYKVSNRFSGVPDRFSGSGSGTDFTLKISRVEAEDLGIYYCFQGSHVPPTFGGGTKLEIKRADAAPTVSIFPPSSEQLTSGGASVVCFLNNFYPKDINVKWKIDGSERQNGVLNSWTDQDSKDSTYSMSSTLTLTKDEYERHNSYTCEATHKTSTSPIVKSFNRNECGGGGSGGGGSEVQLVESGGGLVQPGNSLTLSCVASGFTFSNYGMHWIRQAPKKGLEWIAMIYYDSSKMNYADTVKGRFTISRDNSKNTLYLEMNSLRSEDTAMYYCAVPTSHYVVDVWGQGVSVTVSSGGGGSGGGGSGGGGSDIQMTQSPASLSASLEEIVTITCQASQDIGNWLAWYQQKPGKSPQLLIYGATSLADGVPSRFSGSRSGTQFSLKISRVQVEDIGIYYCLQAYNTPWTFGGGTKLELKRGGGGSGGGGSDIVMTQAPLSLPVSLGDQASISCRSSQSIVHSNGNTYLEWYLQKPGQSPKLLIYKVSNRFSGVPDRFSGSGSGTDFTLKISRVEAEDLGIYYCFQGSHVPPTFGGGTKLEIKRADAAPTVSIFPPSSEQLTSGGASVVCFLNNFYPKDINVKWKIDGSERQNGVLNSWTDQDSKDSTYSMSSTLTLTKDEYERHNSYTCEATHKTSTSPIVKSFNRNEC |
| binds | binds | mAb158-scLc-8D3-Ig.9 (bispecific antibody, human IgG1, kappa, Format [LC-L1-scBM-L2-LC]) heavy: not shown DIVMTQAPLSLPVSLGDQASISCRSSQSIVHSNGNTYLEWYLQKPGQSPKLLIYKVSNRFSGVPDRFSGSGSGTDFTLKISRVEAEDLGIYYCFQGSHVPPTFGGGTKLEIKRADAAPTVSIFPPSSEQLTSGGASVVCFLNNFYPKDINVKWKIDGSERQNGVLNSWTDQDSKDSTYSMSSTLTLTKDEYERHNSYTCEATHKTSTSPIVKSFNRNECGGGGSGGGGSGGGGSGGGGSEVQLVESGGGLVQPGNSLTLSCVASGFTFSNYGMHWIRQAPKKGLEWIAMIYYDSSKMNYADTVKGRFTISRDNSKNTLYLEMNSLRSEDTAMYYCAVPTSHYVVDVWGQGVSVTVSSGGGGSGGGGSGGGGSDIQMTQSPASLSASLEEIVTITCQASQDIGNWLAWYQQKPGKSPQLLIYGATSLADGVPSRFSGSRSGTQFSLKISRVQVEDIGIYYCLQAYNTPWTFGGGTKLELKRGGGGSGGGGSGGGGSGGGGSDIVMTQAPLSLPVSLGDQASISCRSSQSIVHSNGNTYLEWYLQKPGQSPKLLIYKVSNRFSGVPDRFSGSGSGTDFTLKISRVEAEDLGIYYCFQGSHVPPTFGGGTKLEIKRADAAPTVSIFPPSSEQLTSGGASVVCFLNNFYPKDINVKWKIDGSERQNGVLNSWTDQDSKDSTYSMSSTLTLTKDEYERHNSYTCEATHKTSTSPIVKSFNRNEC |

The remaining lines, values behind:

| Binder | binding result (recombinant Aβ1-42) | binding result [1] |
| --- | --- | --- |
| mAb158-scLc-8D3-Ig.12 (bispecific antibody, human IgG1, kappa, Format [LC-L1-scBM-L2-LC]; also called mAb158-scLc-Ig.12) heavy: not shown DIVMTQAPLSLPVSLGDQASISCRSSQSIVHSNGNTYLEWYLQKPGQSPKLLIYKVSNRFSGVPDRFSGSGSGTDFTLKISRVEAEDLGIYYCFQGSHVPPTFGGGTKLEIKRADAAPTVSIFPPSSEQLTSGGASVVCFLNNFYPKDINVKWKIDGSERQNGVLNSWTDQDSKDSTYSMSSTLTLTKDEYERHNSYTCEATHKTSTSPIVKSFNRNECGGGGSGGGGSGGGGSGGGGSGGGGSEVQLVESGGGLVQPGNSLTLSCVASGFTFSNYGMHWIRQAPKKGLEWIAMIYYDSSKMNYADTVKGRFTISRDNSKNTLYLEMNSLRSEDTAMYYCAVPTSHYVVDVWGQGVSVTVSSGGGGSGGGGSGGGGSDIQMTQSPASLSASLEEIVTITCQASQDIGNWLAWYQQKPGKSPQLLIYGATSLADGVPSRFSGSRSGTQFSLKISRVQVEDIGIYYCLQAYNTPWTFGGGTKLELKRGGGGSGGGGSGGGGSGGGGSDIVMTQAPLSLPVSLGDQASISCRSSQSIVHSNGNTYLEWYLQKPGQSPKLLIYKVSNRFSGVPDRFSGSGSGTDFTLKISRVEAEDLGIYYCFQGSHVPPTFGGGTKLEIKRADAAPTVSIFPPSSEQLTSGGASVVCFLNNFYPKDINVKWKIDGSERQNGVLNSWTDQDSKDSTYSMSSTLTLTKDEYERHNSYTCEATHKTSTSPIVKSFNRNEC | binds | binds |
| mAb158-scLc-8D3-Ig.14 (bispecific antibody, human IgG1, kappa, Format [LC-L1-scBM-L2-LC]; also called mAb158-scLc-Ig.14) heavy: not shown DIVMTQAPLSLPVSLGDQASISCRSSQSIVHSNGNTYLEWYLQKPGQSPKLLIYKVSNRFSGVPDRFSGSGSGTDFTLKISRVEAEDLGIYYCFQGSHVPPTFGGGTKLEIKRADAAPTVSIFPPSSEQLTSGGASVVCFLNNFYPKDINVKWKIDGSERQNGVLNSWTDQDSKDSTYSMSSTLTLTKDEYERHNSYTCEATHKTSTSPIVKSFNRNECGGGGSGGGGSGGGGSGGGGSGGGGSDIQMTQSPASLSASLEEIVTITCQASQDIGNWLAWYQQKPGKSPQLLIYGATSLADGVPSRFSGSRSGTQFSLKISRVQVEDIGIYYCLQAYNTPWTFGGGTKLELKRGGGGSGGGGSGGGGSEVQLVESGGGLVQPGNSLTLSCVASGFTFSNYGMHWIRQAPKKGLEWIAMIYYDSSKMNYADTVKGRFTISRDNSKNTLYLEMNSLRSEDTAMYYCAVPTSHYVVDVWGQGVSVTVSSGGGGSGGGGSGGGGSDIVMTQAPLSLPVSLGDQASISCRSSQSIVHSNGNTYLEWYLQKPGQSPKLLIYKVSNRFSGVPDRFSGSGSGTDFTLKISRVEAEDLGIYYCFQGSHVPPTFGGGTKLEIKRADAAPTVSIFPPSSEQLTSGGASVVCFLNNFYPKDINVKWKIDGSERQNGVLNSWTDQDSKDSTYSMSSTLTLTKDEYERHNSYTCEATHKTSTSPIVKSFNRNEC | binds | binds |
| mAb158-scLc-15G11-1-Ig.1 (bispecific antibody, human IgG1, kappa, Format [LC-L1-scBM-L2-LC]) heavy: not shown DIVMTQAPLSLPVSLGDQASISCRSSQSIVHSNGNTYLEWYLQKPGQSPKLLIYKVSNRFSGVPDRFSGSGSGTDFTLKISRVEAEDLGIYYCFQGSHVPPTFGGGTKLEIKRTVAAPSVFIFPPSDEQLKSGTASVVCLLNNFYPREAKVQWKVDNALQSGNSQESVTEQDSKDSTYSLSSTLTLSKADYEKHKVYACEVTHQGLSSPVTKSFNRGECGGGGSGGGGSGGGGSEVQLVQSGAEVKKPGASVKVSCKASGYTFTSYWMHWVRQAPGQRLEWIGEINPTNGRTNYIEKFKSRATLTVDKSASTAYMELSSLRSEDTAVYYCARGTRAYHYWGQGTMVTVSSGGGGSGGGGSGGGGSDIQMTQSPSSLSASVGDRVTITCRASDNLYSNLAWYQQKPGKSPKLLVYDATNLADGVPSRFSGSGSGTDYTLTISSLQPEDFATYYCQHFWGTPLTFGQGTKVEIKGGGGSGGGGSGGGGSDIVMTQAPLSLPVSLGDQASISCRSSQSIVHSNGNTYLEWYLQKPGQSPKLLIYKVSNRFSGVPDRFSGSGSGTDFTLKISRVEAEDLGIYYCFQGSHVPPTFGGGTKLEIKRTVAAPSVFIFPPSDEQLKSGTASVVCLLNNFYPREAKVQWKVDNALQSGNSQESVTEQDSKDSTYSLSSTLTLSKADYEKHKVYACEVTHQGLSSPVTKSFNRGEC | binds | – |
| mAb158-scLc-8D3-Ig.10 (bispecific antibody, human IgG1, kappa, Format [LC-L1-scBM-L2-LC]) heavy: not shown DIVMTQAPLSLPVSLGDQASISCRSSQSIVHSNGNTYLEWYLQKPGQSPKLLIYKVSNRFSGVPDRFSGSGSGTDFTLKISRVEAEDLGIYYCFQGSHVPPTFGGGTKLEIKRADAAPTVSIFPPSSEQLTSGGASVVCFLNNFYPKDINVKWKIDGSERQNGVLNSWTDQDSKDSTYSMSSTLTLTKDEYERHNSYTCEATHKTSTSPIVKSFNRNECGGGGSGGGGSGGGGSGGGGSGGGGSEVQLVESGGGLVQPGNSLTLSCVASGFTFSNYGMHWIRQAPKKGLEWIAMIYYDSSKMNYADTVKGRFTISRDNSKNTLYLEMNSLRSEDTAMYYCAVPTSHYVVDVWGQGVSVTVSSGGGGSGGGGSGGGGSDIQMTQSPASLSASLEEIVTITCQASQDIGNWLAWYQQKPGKSPQLLIYGATSLADGVPSRFSGSRSGTQFSLKISRVQVEDIGIYYCLQAYNTPWTFGGGTKLELKRGGGGSGGGGSDIVMTQAPLSLPVSLGDQASISCRSSQSIVHSNGNTYLEWYLQKPGQSPKLLIYKVSNRFSGVPDRFSGSGSGTDFTLKISRVEAEDLGIYYCFQGSHVPPTFGGGTKLEIKRADAAPTVSIFPPSSEQLTSGGASVVCFLNNFYPKDINVKWKIDGSERQNGVLNSWTDQDSKDSTYSMSSTLTLTKDEYERHNSYTCEATHKTSTSPIVKSFNRNEC | binds | binds |
